Results reported in patent US20240116985A1 (published 2024).
Starred links: 1 amine or outer side, 2 acyl side, 3 side chain; linkers in the order of their positions; H or OH if unused. Positions of bridges follow the written chain, without caps; N, C: chain ends. Non-standard residues stand in square brackets, D forms with d. Primed or numbered codes have the meaning given here. PyrS2″ = (S)-3-amino-1-((pent-4-en-1-yloxy)carbonyl)pyrrolidine-3-carboxylic acid (stapling residue), C=CCCCOC(=O)N1CC[C@@](N[*:1])(C(=O)[*:2])C1; HypBzEs3OAllyl = (2R,4S)-4-((3-(allyloxy)benzoyl)oxy)pyrrolidine-2-carboxylic acid, C=CCOc1cccc(C(=O)O[C@H]2C[C@H](C(=O)[*:2])N([*:1])C2)c1; B5(17) = 2,2-bis(4-pentenyl)glycine = 2-amino-2-(pent-4-en-1-yl)hept-6-enoic acid, stitching residue, C=CCCCC(CCCC=C)(N[*:1])C(=O)[*:2]; B5(4) = 2,2-bis(4-pentenyl)glycine = 2-amino-2-(pent-4-en-1-yl)hept-6-enoic acid (stitching residue), C=CCCCC(CCCC=C)(N[*:1])C(=O)[*:2]; TfeGA = (S)-2-amino-3-((carboxymethyl)(2,2,2-trifluoroethyl)amino)propanoic acid, O=C([C@H](CN(CC(=O)[*:3])CC(F)(F)F)N[*:1])[*:2]; PyrS2 = (S)-3-amino-1-((pent-4-en-1-yloxy)carbonyl)pyrrolidine-3-carboxylic acid, C=CCCCOC(=O)N1CC[C@@](N[*:1])(C(=O)[*:2])C1; (2OxoPpz)GlnR = Glu side chain amide with 2-oxopiperazine (3-oxopiperazin-1-yl), O=C1CN(C(=O)CC[C@H](N[*:1])C(=O)[*:2])CCN1; B5(3) = 2,2-bis(4-pentenyl)glycine (stitching residue), C=CCCCC(CCCC=C)(N[*:1])C(=O)[*:2]; B5(28) = 2,2-bis(4-pentenyl)glycine, C=CCCCC(CCCC=C)(N[*:1])C(=O)[*:2]; Phe(3-COOH) = N[C@@H](Cc1cccc(C(=O)O)c1)C(=O)O; 2F3MeF = Cc1cccc(C[C@H](N[*:1])C(=O)[*:2])c1F; Phe(3,4-F2) = N[C@@H](Cc1ccc(F)c(F)c1)C(=O)O; Phe(4-F) = N[C@@H](Cc1ccc(F)cc1)C(=O)O; 1Nal = N[C@@H](Cc1cccc2ccccc12)C(=O)O; Bta = N[C@@H](Cc1csc2ccccc12)C(=O)O; αAllylPro = C=CC[C@@]1(C(=O)O)CCCN1; isoindolineGlnR = not defined here; tBuAla = CC(C)(C)C[C@H](N)C(=O)O; 2Pal = N[C@@H](Cc1ccccn1)C(=O)O; 3Pal = N[C@@H](Cc1cccnc1)C(=O)O; 3Thi = N[C@@H](Cc1ccsc1)C(=O)O; S8 = C=CCCCCCC[C@](C)(N)C(=O)O; PyrS2(4) = not defined here

T1: beta-catenin, full-length (Uniprot ID P35222) (Homo sapiens (Human), UniProt P35222 2-781)
T1 construct: tags are not described; also called bCat; B-Catenin
T1 sequence: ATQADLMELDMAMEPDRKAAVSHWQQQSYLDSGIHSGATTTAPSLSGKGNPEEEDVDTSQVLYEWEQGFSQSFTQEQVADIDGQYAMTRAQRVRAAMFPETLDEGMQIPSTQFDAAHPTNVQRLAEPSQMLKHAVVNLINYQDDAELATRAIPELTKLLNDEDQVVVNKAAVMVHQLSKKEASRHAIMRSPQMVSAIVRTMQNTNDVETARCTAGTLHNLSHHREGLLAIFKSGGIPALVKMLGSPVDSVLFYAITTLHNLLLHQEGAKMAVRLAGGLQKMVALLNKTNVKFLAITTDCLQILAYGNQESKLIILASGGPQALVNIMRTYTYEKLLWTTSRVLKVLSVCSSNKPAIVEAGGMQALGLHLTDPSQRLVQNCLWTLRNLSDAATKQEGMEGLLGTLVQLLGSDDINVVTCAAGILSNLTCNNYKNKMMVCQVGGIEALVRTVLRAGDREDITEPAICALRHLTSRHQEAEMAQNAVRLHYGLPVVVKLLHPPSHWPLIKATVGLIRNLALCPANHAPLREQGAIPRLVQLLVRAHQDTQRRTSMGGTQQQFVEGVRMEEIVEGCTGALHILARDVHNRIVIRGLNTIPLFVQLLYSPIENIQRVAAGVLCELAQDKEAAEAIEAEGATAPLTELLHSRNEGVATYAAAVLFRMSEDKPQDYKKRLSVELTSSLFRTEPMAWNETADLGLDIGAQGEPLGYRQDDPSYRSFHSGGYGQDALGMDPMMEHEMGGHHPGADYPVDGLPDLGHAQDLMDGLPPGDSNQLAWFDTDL

T2: Bcat-Halo (UniProt P35222 1-781)
T2 sequence (looked up): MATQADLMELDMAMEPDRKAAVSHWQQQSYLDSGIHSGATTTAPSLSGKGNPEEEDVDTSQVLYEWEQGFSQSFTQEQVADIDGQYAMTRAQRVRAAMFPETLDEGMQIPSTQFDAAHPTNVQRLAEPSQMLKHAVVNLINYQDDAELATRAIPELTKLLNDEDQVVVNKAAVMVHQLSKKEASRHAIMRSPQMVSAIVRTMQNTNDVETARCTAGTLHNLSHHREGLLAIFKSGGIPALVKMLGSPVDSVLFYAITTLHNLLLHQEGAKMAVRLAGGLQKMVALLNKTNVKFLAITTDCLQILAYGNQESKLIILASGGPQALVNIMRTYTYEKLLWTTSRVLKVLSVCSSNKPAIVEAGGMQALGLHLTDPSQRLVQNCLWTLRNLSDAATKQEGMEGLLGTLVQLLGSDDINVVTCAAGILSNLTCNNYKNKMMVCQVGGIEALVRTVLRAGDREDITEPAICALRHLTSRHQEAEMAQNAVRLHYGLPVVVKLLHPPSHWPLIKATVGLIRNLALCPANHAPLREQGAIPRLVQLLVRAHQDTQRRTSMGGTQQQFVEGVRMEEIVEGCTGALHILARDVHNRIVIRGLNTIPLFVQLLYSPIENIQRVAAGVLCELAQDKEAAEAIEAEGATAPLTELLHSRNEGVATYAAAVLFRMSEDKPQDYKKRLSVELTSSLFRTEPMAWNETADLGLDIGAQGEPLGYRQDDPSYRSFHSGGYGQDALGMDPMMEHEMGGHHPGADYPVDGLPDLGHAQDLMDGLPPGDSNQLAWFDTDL


target: T1, beta-catenin, full-length (Uniprot ID …); experiment: fluorescence polarization competition, displacement of 5FAM-TCF4 10-53 from full-length beta-catenin
Method: The plate was incubated protected from light for 60 minutes at 20° C. prior to read. Reads were performed on a CLARIOstar plate reader (BMG Labtech) in duplicate, and data were fitted to a 1:1 binding model with hill slope using an in-house script. All provided concentrations are final concentrations.

Row | Binder | IC50
1 | Ac-[αAllylPro]DA[B5(17)]D[3Pal]AAFV[S8]FWQ-NH2 (staple 1-4, 4-11, Stapled (stitched) peptide) [I-271: Ac-PL3-Asp-Ala-B5-Asp-3PyrA-Ala-Ala-Phe-Val-S8-Phe-Trp-Gln-NH2] | 5 µM
2 | Ac-[αAllylPro]DA[B5(17)]D[2Pal]AAFV[S8]FWQ-NH2 (staple 1-4, 4-11, Stapled (stitched) peptide) [I-270: Ac-PL3-Asp-Ala-B5-Asp-2PyrA-Ala-Ala-Phe-Val-S8-Phe-Trp-Gln-NH2] | 5 µM
3 | Ac-[αAllylPro]DA[B5(4)]DDAAFV[S8][1Nal]WQ-NH2 (staple 1-4, 4-11; also: later-eluting HPLC staple isomer, Stapled (stitched) peptide) [I-276: Ac-PL3-Asp-Ala-B5-Asp-Asp-Ala-Ala-Phe-Val-S8-1NapA-Trp-Gln-NH2] | 3.43 µM
4 | Ac-[αAllylPro]DA[B5(4)]DDAAFV[S8][1Nal]WQ-NH2 (staple 1-4, 4-11; also: earlier-eluting HPLC staple isomer, Stapled (stitched) peptide) [I-275: Ac-PL3-Asp-Ala-B5-Asp-Asp-Ala-Ala-Phe-Val-S8-1NapA-Trp-Gln-NH2] | 5 µM
5 | Ac-[αAllylPro]DA[B5(17)]DDAA[Phe(3,4-F2)]V[S8]FWQ-NH2 (staple 1-4, 4-11, Stapled (stitched) peptide) [I-267: Ac-PL3-Asp-Ala-B5-Asp-Asp-Ala-Ala-34FF-Val-S8-Phe-Trp-Gln-NH2] | 5 µM
6 | XDAXDDAAFVXFW (not fully specified; N-terminal Ac; PL3 at 1, B5 at 4, S8 at 11 (olefin-metathesis staples 1-4 and 4-11); C-terminal amide, Stapled (stitched) peptide) [I-289: Ac-PL3-Asp-Ala-B5-Asp-Asp-Ala-Ala-Phe-Val-S8-Phe-Trp-NH2] | 5 µM
7 | Ac-[αAllylPro]DA[B5(17)]DDAA[Phe(4-F)]V[S8]FWQ-NH2 (staple 1-4, 4-11, Stapled (stitched) peptide) [I-266: Ac-PL3-Asp-Ala-B5-Asp-Asp-Ala-Ala-4FF-Val-S8-Phe-Trp-Gln-NH2] | 5 µM

Further lines, results first:

Row | IC50 | Binder
8 | 1.87 µM | XDAXDDAAFVXFWA (not fully specified; N-terminal Ac; PL3 at 1, B5 at 4, S8 at 11 (olefin-metathesis staples 1-4 and 4-11); C-terminal amide, Stapled (stitched) peptide) [I-292: Ac-PL3-Asp-Ala-B5-Asp-Asp-Ala-Ala-Phe-Val-S8-Phe-Trp-Ala-NH2]
9 | 3.29 µM | XDAXDDAAFVXFW (not fully specified; N-terminal Ac; PL3 at 1, B5 at 4, S8 at 11 (olefin-metathesis staples 1-4 and 4-11); C-terminal amide, Stapled (stitched) peptide) [I-290: Ac-PL3-Asp-Ala-B5-Asp-Asp-Ala-Ala-Phe-Val-S8-Phe-Trp-NH2]

target: T2, Bcat-Halo; experiment: cell-based or functional assay

Row | NanoBRET Abs IC50 | Binder
10 | 1.6 µM | Ac-[αAllylPro]D[tBuAla][B5(4)]D[Phe(3-COOH)][(TfePpz)GlnR]AFL[PyrS2(4)][2F3MeF][Bta]A-NH2 (staple 1-4, 4-11; reading uncertain; also: printed as Ac-PL3-Asp-Npg-B5-Asp-3COOHF-[TfePpz]GlnR-Ala-Phe-Leu-PyrS2-2F3MeF-BztA-Ala-NH2) [I-2316]
11 | > 20 µM | Ac-[HypBzEs3OAllyl]D[tBuAla][B5(3)]D[TfeGA]AAFL[PyrS2″][3Thi][Bta]Q-NH2 (staple 1-4, 4-11; also: staple -CH=CH- reduced to -CH2-CH2-) [I-2328]
12 | 1.8 µM | Ac-[αAllylPro]D[tBuAla][B5(4)]D[Phe(3-COOH)][(2OxoPpz)GlnR]AFL[PyrS2″][2F3MeF][Bta]A-NH2 (staple 1-4, 4-11) [I-2318]
13 | 18.8 µM | Ac-[αAllylPro]D[tBuAla][B5(4)]D[Phe(3-COOH)][(4Pippip)GlnR]AFL[PyrS2″][2F3MeF][Bta]A-NH2 (staple 1-4, 4-11) [I-2317]
14 | 2.7 µM | Ac-[αAllylPro]D[tBuAla][B5(28)]D[Phe(3-COOH)][isoindolineGlnR]AFL[PyrS2][2F3MeF][Bta]A-NH2 (staple 1-4, 4-11; reading uncertain) [I-2320]
